Here are results for 2 molecules from article doi:10.1101/2025.10.14.682262.

Where two headings read alike, the source gives them in different places.

What all share (assay): EMSA
The target of series [1] is T1, PAN (…) WT (Arabidopsis thaliana, UniProt Q9SX27 1-452).
T1 sequence: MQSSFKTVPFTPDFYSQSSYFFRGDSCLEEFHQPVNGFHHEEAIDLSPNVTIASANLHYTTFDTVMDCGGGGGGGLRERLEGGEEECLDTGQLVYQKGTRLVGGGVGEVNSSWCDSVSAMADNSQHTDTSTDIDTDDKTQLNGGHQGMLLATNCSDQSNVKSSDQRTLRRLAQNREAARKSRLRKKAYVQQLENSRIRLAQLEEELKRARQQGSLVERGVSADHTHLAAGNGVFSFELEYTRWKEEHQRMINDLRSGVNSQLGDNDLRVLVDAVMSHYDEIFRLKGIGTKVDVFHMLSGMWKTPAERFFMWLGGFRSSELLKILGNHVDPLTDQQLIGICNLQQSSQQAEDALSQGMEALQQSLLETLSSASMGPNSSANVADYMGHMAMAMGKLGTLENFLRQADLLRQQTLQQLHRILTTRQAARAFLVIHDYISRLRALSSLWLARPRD

The next series has as its target T2, PAN 6 Cys to Ser (Arabidopsis thaliana, UniProt Q9SX27 1-452, C27S;C68S;C87S;C114S;C154S;C340S).
T2 sequence: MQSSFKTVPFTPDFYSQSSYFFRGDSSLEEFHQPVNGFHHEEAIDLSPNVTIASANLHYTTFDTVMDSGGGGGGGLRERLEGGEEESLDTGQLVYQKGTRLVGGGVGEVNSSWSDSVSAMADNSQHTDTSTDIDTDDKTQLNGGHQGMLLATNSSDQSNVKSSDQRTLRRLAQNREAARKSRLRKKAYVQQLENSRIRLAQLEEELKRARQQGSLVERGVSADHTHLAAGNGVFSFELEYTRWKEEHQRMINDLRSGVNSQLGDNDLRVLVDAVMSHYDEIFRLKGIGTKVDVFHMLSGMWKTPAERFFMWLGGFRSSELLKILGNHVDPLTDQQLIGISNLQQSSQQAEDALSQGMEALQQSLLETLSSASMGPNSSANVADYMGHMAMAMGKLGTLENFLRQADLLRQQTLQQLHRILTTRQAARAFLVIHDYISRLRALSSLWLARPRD

For another series, the target named is T3, PAN 5 Cys to Ser (Arabidopsis thaliana, UniProt Q9SX27 1-452, C27S;C68S;C87S;C114S;C154S).
T3 sequence: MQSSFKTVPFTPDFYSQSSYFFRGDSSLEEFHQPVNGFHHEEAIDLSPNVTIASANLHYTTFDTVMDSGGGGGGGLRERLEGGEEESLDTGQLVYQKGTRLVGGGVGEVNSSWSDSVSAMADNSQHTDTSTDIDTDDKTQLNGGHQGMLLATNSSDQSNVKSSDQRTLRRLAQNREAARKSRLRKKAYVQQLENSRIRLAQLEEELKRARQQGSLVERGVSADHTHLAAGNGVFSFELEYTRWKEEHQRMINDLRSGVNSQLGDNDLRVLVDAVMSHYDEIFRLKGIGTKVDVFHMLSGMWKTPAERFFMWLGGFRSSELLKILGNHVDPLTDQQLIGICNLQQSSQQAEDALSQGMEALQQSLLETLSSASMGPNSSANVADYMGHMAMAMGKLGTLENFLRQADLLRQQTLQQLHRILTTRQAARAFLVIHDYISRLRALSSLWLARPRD

Series [2] concerns the target T1, PAN (…) WT. The source holds these as a separate data set.

B1: TGACGT WT probe (dsDNA)
DNA 1: ATCAGATCTAATTGACGTGATAGCATATAGA
DNA 2: TCTATATGCTATCACGTCAATTAGATCTGAT
For B1, the binding result with PAN (…) WT [1], with PAN 6 Cys to Ser and with PAN 5 Cys to Ser was “binds” throughout.

B2: TGATTT mutated probe (M) (dsDNA)
DNA 1: ATCAGATCTAATTGATTTGATAGCATATAGA
DNA 2: TCTATATGCTATCAAATCAATTAGATCTGAT
In the case of B2, the binding result with PAN (…) WT [2] is on record as “no binding”.
